Experiments:
human CD40 on cells = human CD40 on cells (human, UniProt P25942 21-277); test: cell-based or functional assay
huCD40(1-193) = biological target: T1, huCD40(1-193) (human, UniProt P25942 21-193); test: Octet
T1 construct: also called soluble human CD40
Procedure: (§1) A panel of mesothelin×CD40 bispecific antibodies were generated in the IgG-scFv format (Table 13) and evaluated for binding to soluble forms of human and cynomolgus monkey CD40 and human and cynomolgus monkey mesothelin using the Octet assay (Table 14). Association rate (Kon), disassociation rate (Kdis), and equilibrium binding constant (KD) were calculated. […] These bispecific antibodies were next evaluated for their ability to induce mesothelin-dependent activation of human B cells. CHO cells expressing human mesothelin were seeded into a 96 well plate. The next day varying concentrations of the mesothelin×CD40 IgG-scFv antibodies were added to the wells along with purified human B cells and the plates were incubated for an additional 48 hours. Upregulation of CD86, a marker of CD40-mediated B cell activation, was quantified on B cells by flow cytometry.

cynoCD40(1-193) = biological target: T2, cynoCD40(1-193) (cynomolgus monkey, UniProt P25942 21-193 (human entry)); test: Octet
T2 construct: also called soluble cynomolgus monkey CD40
T2 chain: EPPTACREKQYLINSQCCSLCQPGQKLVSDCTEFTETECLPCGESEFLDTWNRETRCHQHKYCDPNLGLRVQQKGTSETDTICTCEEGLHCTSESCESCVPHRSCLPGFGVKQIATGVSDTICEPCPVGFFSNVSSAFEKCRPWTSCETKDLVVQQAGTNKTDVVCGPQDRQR
Procedure: as §1

huMSLN(296-598) = biological target: T3, huMSLN(296-598) (human, UniProt Q13421 296-598); test: Octet
T3 construct: also called soluble human mesothelin
T3 sequence (Q13421 other isoform, or with tags, fused parts or gaps): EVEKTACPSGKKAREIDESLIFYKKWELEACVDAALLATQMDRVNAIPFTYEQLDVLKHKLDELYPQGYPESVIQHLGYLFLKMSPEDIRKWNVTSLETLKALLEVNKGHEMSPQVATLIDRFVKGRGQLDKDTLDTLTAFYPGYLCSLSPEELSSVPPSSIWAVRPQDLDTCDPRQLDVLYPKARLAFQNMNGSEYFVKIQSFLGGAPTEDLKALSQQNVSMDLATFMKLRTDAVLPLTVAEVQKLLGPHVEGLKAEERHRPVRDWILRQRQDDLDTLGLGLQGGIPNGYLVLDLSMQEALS
Procedure: as §1

cynoMSLN(296-598) = biological target: T4, cynoMSLN(296-598) (cynomolgus monkey); test: Octet
T4 chain: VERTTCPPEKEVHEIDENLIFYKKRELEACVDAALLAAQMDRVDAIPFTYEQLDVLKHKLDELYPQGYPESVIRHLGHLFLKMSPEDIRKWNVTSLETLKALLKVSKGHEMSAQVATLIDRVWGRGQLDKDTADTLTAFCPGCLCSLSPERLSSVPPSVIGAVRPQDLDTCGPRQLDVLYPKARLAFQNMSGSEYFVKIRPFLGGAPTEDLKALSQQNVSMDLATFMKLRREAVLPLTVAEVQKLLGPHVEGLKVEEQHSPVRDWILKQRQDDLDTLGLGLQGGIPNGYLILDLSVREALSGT
Procedure: as §1

human CD40 = human CD40 (human, UniProt P25942 21-277); test: cell-based or functional assay

B1: soluble human CD40L (ligand, UniProt P29965 113-261, looked up)
chain: MQKGDQNPQIAAHVISEASSKTTSVLQWAEKGYYTMSNNLVTLENGKQLTVKRQGLYYIYAQVTFCSNREASSQAPFIASLCLKSPGRFERILLRAANTHSSAKPCGQQSIHLGGVFELQPGASVFVNVTDPSQVSHGTGFTSFGLLKL
modifications: fluorescent label in the ligand binding assay of Table 7
- CD40L EC50, human B cell proliferation, no antibody (human CD40 on cells): 1.08 ng/mL
- CD40L EC50, human B cell proliferation, with 1 ug/ml 4G7 (human CD40 on cells): 1.04 ng/mL
- CD40L EC50, human B cell proliferation, with 1 ug/ml 29H10 (human CD40 on cells): 0.715 ng/mL
- CD40L EC50, human B cell proliferation, with 1 ug/ml 30A12 (human CD40 on cells): 0.81 ng/mL
- CD40L EC50, human B cell proliferation, with 1 ug/ml 33H6 (human CD40 on cells): 1.14 ng/mL
- CD40L EC50, human B cell proliferation, with 1 ug/ml 35F11 (human CD40 on cells): 6.66 ng/mL
- CD40L EC50, human B cell proliferation, with 1 ug/ml 36F3 (human CD40 on cells): 13 ng/mL
- CD40L EC50, human B cell proliferation, with 1 ug/ml 37A6 (human CD40 on cells): 1.39 ng/mL
- CD40L EC50, human B cell proliferation, with 1 ug/ml 39C2 (human CD40 on cells): 0.985 ng/mL

B2: 6032-2 (bispecific antibody)
heavy: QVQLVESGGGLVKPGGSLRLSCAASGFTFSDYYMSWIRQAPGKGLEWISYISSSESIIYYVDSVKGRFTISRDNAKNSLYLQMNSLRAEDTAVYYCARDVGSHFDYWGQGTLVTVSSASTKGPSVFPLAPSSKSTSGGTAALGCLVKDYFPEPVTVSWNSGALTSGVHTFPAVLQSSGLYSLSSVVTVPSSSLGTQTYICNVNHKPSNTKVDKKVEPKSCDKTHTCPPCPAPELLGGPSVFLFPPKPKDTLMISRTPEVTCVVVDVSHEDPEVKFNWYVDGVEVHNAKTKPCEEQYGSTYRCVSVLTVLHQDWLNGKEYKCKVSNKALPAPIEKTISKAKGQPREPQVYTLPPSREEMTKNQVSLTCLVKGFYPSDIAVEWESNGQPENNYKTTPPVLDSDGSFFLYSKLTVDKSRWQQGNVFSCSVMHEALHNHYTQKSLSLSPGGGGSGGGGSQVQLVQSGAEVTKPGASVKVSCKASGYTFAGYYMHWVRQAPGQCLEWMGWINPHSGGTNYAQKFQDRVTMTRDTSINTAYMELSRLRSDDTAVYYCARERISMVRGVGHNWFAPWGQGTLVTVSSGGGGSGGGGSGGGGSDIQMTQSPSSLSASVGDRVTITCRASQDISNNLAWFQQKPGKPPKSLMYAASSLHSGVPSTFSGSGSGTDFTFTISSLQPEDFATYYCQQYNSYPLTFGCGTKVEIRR
light: DIQMTQSPSSVSASVGDRVTITCRASQDISRWLAWYQQKPGKAPKLLISAASRLQSGVPSRFSGSGSGTDFTLTISSLQPEDFAIYYCQQAKSFPRTFGQGTKVEIKRTVAAPSVFIFPPSDEQLKSGTASVVCLLNNFYPREAKVQWKVDNALQSGNSQESVTEQDSKDSTYSLSSTLTLSKADYEKHKVYACEVTHQGLSSPVTKSFNRGEC
notes: IgG-scFv: IgG (MSLN) 6F4, scFv (CD40) 29H10
- Kd (huCD40(1-193)): 2 nM
- koff (huCD40(1-193)): 0.000407 s⁻¹
- kon (huCD40(1-193)): 204000 M⁻¹ s⁻¹
- Kd (cynoCD40(1-193)): 1.7 nM
- koff (cynoCD40(1-193)): 0.000407 s⁻¹
- kon (cynoCD40(1-193)): 238000 M⁻¹ s⁻¹
- Kd (huMSLN(296-598)): 0.4 nM
- koff (huMSLN(296-598)): 0.000306 s⁻¹
- kon (huMSLN(296-598)): 692000 M⁻¹ s⁻¹
- Kd (cynoMSLN(296-598)): 5.8 nM
- koff (cynoMSLN(296-598)): 0.00199 s⁻¹
- kon (cynoMSLN(296-598)): 345000 M⁻¹ s⁻¹
- EC50 (nM), CD86 upregulation on human B cells with huMSLN-CHO cells (human CD40): 0.00935 nM

— patent US20260109776A1 (Amgen, published 2026)
